Results published in patent CN109810193A (SHENZHEN INST ADV TECH, dated 2019).

Columns and labels:
[1] = molecular target: T1, 人DR4抗原 (human, UniProt O00220 24-239, limits assumed); assay: ELISA, DR4 coated, goat anti-mouse IgG-HRP, OD450
T1 construct: also called death receptor 4
T1 sequence (looked up): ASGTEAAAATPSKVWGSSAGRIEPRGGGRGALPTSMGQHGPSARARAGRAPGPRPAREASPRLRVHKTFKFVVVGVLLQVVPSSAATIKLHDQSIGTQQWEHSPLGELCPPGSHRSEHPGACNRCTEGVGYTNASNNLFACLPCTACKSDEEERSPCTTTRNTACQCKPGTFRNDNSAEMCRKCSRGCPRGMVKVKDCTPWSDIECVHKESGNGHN

[2] = molecular target: jurkat细胞表面的DR5蛋白 (UniProt O14763 56-440, limits assumed); assay: cell-based or functional assay
[3] = molecular target: sDR5-Fc-biotin (UniProt O14763); assay: competition ELISA: sDR5-Fc-biotin 7.5 ug/ml preincubated with 6C93D6 30 ug/ml, added to coated human TRAIL (5 ug/ml); Streptavidin-HRP; the OD is the remaining binding of the complex to TRAIL
[4] = molecular target: T2, sDR5-Fc蛋白 (UniProt O14763 56-182, limits assumed); assay: BLI (OCTET K2), sDR5-Fc 10 ug/ml captured on AHC sensors, 6C93D6 at 76-4.75 nM in solution
T2 construct: Immunogen and BLI ligand; not shown: it was captured on AHC (Anti-hIgG Fc Capture) sensors

B1: 6C93D6抗体 (抗DR5的单克隆抗体) (antibody, V domains shown)
VH: EVQLQQSGPDLVKPGASVKISCKASGYSFTGHYMHWVKQSHGQSLEWIGRVNPNNGGTGYNQKFKDKAILTVDKPSSTAYMELRSLTSEDSAVYYCARNGAYYRSDGNYFDYWGQGTTLTVSS
VL: DIVLTQSTPSLAVSLGQRATISCRASESVDSYGNSFMHWFQQKPGQPPKLLIYRASNLESGIPARFSGSGSRTDFTLTINPVEADDVATYYCQQSNEDPYTFGGGTKLEIK
notes: Mouse hybridoma monoclonal antibody purified from ascites on Protein G
binding result [1]: no binding | 诱导HepaRG细胞凋亡的EC50 (1ug/ml交联剂 anti-mouse IgG Fc antibody; MTS/PMS, A490-A630) [2]: 68.5 pg/mL | 诱导HepaRG细胞凋亡的EC50 (无交联剂; MTS/PMS, A490-A630) [2]: 1.1 µg/mL | OD450 [3]: 0.105 | Kd [4]: 6.77 nM
